The target of data set [1] is T1, Ndm, two-subunit N-demethylase component purified from Pseudomonas putida CBB5 (UniProt H9N289).
T1 sequence 1: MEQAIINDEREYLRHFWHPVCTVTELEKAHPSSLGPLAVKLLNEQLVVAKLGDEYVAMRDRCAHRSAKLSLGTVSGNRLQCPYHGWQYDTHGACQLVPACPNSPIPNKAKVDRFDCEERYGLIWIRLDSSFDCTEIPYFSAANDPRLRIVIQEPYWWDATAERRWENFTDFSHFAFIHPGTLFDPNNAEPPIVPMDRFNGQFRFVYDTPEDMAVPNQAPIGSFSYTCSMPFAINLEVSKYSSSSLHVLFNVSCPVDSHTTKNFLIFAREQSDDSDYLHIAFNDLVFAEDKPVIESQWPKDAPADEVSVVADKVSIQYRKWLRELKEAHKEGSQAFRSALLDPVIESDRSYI
T1 sequence 2: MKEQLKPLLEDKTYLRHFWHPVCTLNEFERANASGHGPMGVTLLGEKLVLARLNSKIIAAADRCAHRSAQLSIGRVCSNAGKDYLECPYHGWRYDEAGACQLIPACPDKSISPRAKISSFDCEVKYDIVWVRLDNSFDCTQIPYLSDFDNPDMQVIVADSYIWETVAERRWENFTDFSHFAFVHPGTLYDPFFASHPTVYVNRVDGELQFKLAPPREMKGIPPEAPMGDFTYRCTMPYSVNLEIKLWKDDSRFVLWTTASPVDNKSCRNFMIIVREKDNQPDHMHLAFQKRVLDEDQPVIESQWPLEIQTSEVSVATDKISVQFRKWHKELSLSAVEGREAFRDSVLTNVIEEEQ

The target of data set [2] is T2, Ndm, two-subunit N-demethylase component purified from Pseudomonas putida CBB5, H9N289.
T2 chain 1: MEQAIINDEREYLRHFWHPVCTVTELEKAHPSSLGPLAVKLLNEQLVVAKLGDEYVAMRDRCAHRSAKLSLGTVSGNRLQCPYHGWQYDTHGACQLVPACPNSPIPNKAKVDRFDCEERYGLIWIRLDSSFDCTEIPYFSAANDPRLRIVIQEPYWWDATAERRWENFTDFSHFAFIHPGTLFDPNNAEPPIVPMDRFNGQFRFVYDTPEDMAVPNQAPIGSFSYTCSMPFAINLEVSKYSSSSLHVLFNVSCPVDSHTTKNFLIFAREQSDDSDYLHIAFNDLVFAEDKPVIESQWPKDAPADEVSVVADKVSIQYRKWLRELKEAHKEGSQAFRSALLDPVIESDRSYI
T2 chain 2: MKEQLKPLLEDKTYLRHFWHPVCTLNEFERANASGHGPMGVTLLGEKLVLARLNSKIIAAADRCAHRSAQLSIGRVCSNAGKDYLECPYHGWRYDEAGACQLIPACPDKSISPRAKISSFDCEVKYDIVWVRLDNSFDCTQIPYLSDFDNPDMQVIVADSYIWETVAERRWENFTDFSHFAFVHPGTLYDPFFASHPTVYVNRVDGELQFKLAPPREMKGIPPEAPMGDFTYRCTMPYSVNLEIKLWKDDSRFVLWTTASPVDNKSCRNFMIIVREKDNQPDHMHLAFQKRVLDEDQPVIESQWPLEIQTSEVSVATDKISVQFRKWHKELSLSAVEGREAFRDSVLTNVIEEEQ

The target of data set [3] is T3, NdmB-His6, H9N290.
T3 chain: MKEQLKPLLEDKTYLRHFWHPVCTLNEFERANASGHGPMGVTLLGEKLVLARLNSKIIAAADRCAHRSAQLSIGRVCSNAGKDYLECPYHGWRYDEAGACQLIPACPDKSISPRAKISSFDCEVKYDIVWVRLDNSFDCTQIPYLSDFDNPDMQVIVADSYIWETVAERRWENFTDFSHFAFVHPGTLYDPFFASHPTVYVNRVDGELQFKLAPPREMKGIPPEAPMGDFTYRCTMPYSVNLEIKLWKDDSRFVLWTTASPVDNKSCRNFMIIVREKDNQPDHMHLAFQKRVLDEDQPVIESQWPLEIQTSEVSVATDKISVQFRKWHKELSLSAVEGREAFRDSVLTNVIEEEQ

Data set [4] addresses T4, NdmA-His6, H9N289.
T4 chain: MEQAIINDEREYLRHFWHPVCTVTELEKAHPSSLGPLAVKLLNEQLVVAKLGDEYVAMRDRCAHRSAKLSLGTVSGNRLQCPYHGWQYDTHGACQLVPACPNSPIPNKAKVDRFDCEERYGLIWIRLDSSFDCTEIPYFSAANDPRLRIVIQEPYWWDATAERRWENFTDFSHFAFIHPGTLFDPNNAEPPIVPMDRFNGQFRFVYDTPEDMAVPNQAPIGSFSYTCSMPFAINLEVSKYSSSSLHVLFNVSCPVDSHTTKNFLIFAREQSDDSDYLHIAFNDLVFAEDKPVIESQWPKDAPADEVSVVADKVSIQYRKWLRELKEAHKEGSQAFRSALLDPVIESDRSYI

Consider “Ccr, reductase component with cytochrome c reductase activity (partially purified fraction from Pseudomonas putida CBB5)”, for which the N-demethylase activity entry in data set [1] is given as “No N-demethylase activity was observed when purified Ndm was assayed without the Ccr fraction”.

B1: Reductase of Pseudomonas sp. 9816 naphthalene dioxygenase (protein)
chain: MELLIQPNNRIIPFSAGANLLEVLRENGVAISYSCLSGRCGTCRCRVIDGSVIDSGAENGQSNLTDKQYVLACQSVLTGNCAIEVPEADEIVTHPARIIKGTVVAVESPTHDIRRLRVRLSKPFEFSPGQYATLQFSPEHARPYSMAGLPDDQEMEFHIRKVPGGRVTEYVFEHVREGTSIKLSGPLGTAYLRQKHTGPMLCVGGGTGLAPVLSIVRGALKSGMTNPILLYFGVRSQQDLYDAERLHKLAADHPQLTVHTVIATGPINEGQRAGLITDVIEKDILSLAGWRAYLCGAPAMVEALCTVTKHLGISPEHIYADAFYPGGI
With B1, the N-demethylase activity result in data set [2] was “Ndm did not function in the presence of the reductase and ferredoxin components of Pseudomonas sp. 9816 naphthalene dioxygenase”.

B2: Spinach ferredoxin reductase (protein)
chain: QIASDVEAPPPAPAKVEKHSKKMEEGITVNKFKPKTPYVGRCLLNTKITGDDAPGETWHMVFSHEGEIPYREGQSVGVIPDGEDKNGKPHKLRLYSIASSALGDFGDAKSVSLCVKRLIYTNDAGETIKGVCSNFLCDLKPGAEVKLTGPVGKEMLMPKDPNATIIMLGTGTGIAPFRSFLWKMFFEKHDDYKFNGLAWLFLGVPTSSSLLYKEEFEKMKEKAPDNFRLDFAVSREQTNEKGEKMYIQTRMAQYAVELWEMLKKDNTYFYMCGLKGMEKGIDDIMVSLAAAEGIDWIEYKRQLKKAEQWNVEVY
Turning to B2, the N-demethylase activity result in data set [2] is “Ndm did not couple with ferredoxin reductase plus ferredoxin from spinach”.

B3: His6-NdmD (protein)
chain: HHHHHHSSGLVPRGSHMNKLDVNQWFPIATTEDLPKRHVFHATLLGQEMAIWRDDSGSVNAWENRCPHRGLNTLGANTGNELRCQYHGWTYESGTGGCTFVPAHRDAPPPNAARVNTFPVREKHGFIWTTLGQPPGEPISILDDAQLVNAVKTNLHSVVIDADIDGVVSVLRQNLSAFIDVFGAASAEDLHLKSMLQDRGILVTRSGSIAIHFYMQRSTISKCVVHAQVLTPGRPGYELQKNYSYAMNVIRRAAEAVATDLISITDISDQTIEKLEVVRENMTKAPPTHYICEVVTRTQETGDINSYWLKPIGYPLPAFSPGMHISITTPEGSIRQYSLVNGPDERESFIIGVKKEIGSRGGSRSMHEDVKVGTQLKVTLPRNGFPLVQTRKHPILVAGGIGITPILCMAGALDQQGSSYEIHYFARAFEHVPFQDRLTALGDRLNVHLGLGPDETRAKLPDIMEIHNAQDVDVYTCGPQPMIETVSAVALAHGIAEESIRFEFFSKKNDVPVSDEEYEVELKKTGQIFTVSPGSTLLQACLDNDVRIEASCEQGVCGTCITPVVSGDLEHHDTYLSKKERESGKWIMPCVSRCKSKKIVLDL
Consider B3, for which the “N-demethylation of theobromine to 7-methylxanthine (HPLC)” value in data set [3] is “NdmB-His6 with His6-NdmD, theobromine, NADH, and Fe^2+ resulted in stoichiometric demethylation at N3 of theobromine to 7-methylxanthine”. The “N-demethylation of caffeine to theobromine (HPLC)” value in data set [4] was “when NdmA-His6 was incubated with His6-NdmD, caffeine, NADH, and exogenous Fe^2+, caffeine was stoichiometrically demethylated at N1 to theobromine”.

For the origin of these results see patent publication US20140227729.
